In the experiment the target is T1, 161P2F10B variant 1 (human 161P2F10B), on the cell surface (human, UniProt O14638 1-875).
T1 construct: Cell surface pyrophosphatase/phosphodiesterase; also called 161P2F10B v.1; CD203c
The experiment is described as follows: flow cytometry on cells or ELISA on immobilized 161P2F10B.

The text below walks through data of patent US20090022663A1 (published 2009).

B1: H16-1.80 (antibody, V domains shown)
VH: QVQLQESGPGLVKPSETLSLTCTVSGGSISSYYWSWIRQPPGKGLEWIGYVYFSGSTNYNPSLKSRVTISVDTSKNQFSLKLSSVTAADTAVYYCARATRDYYYYGMDVWGQGTTVTVSS
VL: DIQMTQSPSSLSASVGDRVTITCRTSHDISNYLNWYQQKPGKAPKLLIYAASSLQSGVPSRFSGSRSGTDFTLTISSLQPEDFATYYCQQTYSTLFTFGPGTKVDIKR
notes: also called Ha16-1.80; HA16-1.80
On to B1, for which the binding result was “binds”.

B2: H16-1.61.1 (antibody, V domains shown)
VH: EVQLVESGGGVVQPGRSLRLSCAASGFTFSSYGMHWVRQAPGKGLEWVAVIWYDGSNKYYADSVKGRFTISRDNSKNTLYLQMNSLRAEDTAVYYCARSRITIFGVVHYGMDVWGQGTTVTVSS
VL: DTQLTQSPSSLSASVGDRVTITCRASQSISSYLNWYQLKPGKAPKLLIYAASSLESGVPSRFSGSESGTDFTLTISSLQPEDFATYYCQQSYNSPITFGPGTKVDIKR
As for B2, the binding result was “binds”.
